The values below come from US9938505B2, “Polypeptide composition and culture method for pluripotent stem cell using same” (FUJIFILM Corporation, priority 2013, dated 2018).

For data set [1], the system named is iPS cells. The data set is described as follows: Evaluation of maintenance of undifferentiated state (colony form, NANOG staining). The data set is classed as cell-based, human. The conditions noted are these: FIGS. 4A to 4E; after culture for 1 month. On the procedure: iPS cells collected in the same manner as in <Cell adhesiveness evaluation 1> were suspended in TeSR2. The iPS cells were seeded into 6-well plate (Tissue culture-treated, Falcon), onto which each of the samples 1, 2, 5, 6, and 7 used in <Cell adhesiveness evaluation 1> was adsorbed in the same manner as in <Cell adhesiveness evaluation 1>, and cultured in a CO2 incubator at 37° C. Except for the day after the seeding, the medium was replaced every day. In the same method as described above, the cells were subcultured every six days. FIGS. 3A to 3E show forms of the iPS cells cultured on each of the samples.
After being cultured for 1 month under the conditions described above, the cells were immobilized using 4% paraformaldehyde and treated with 1% Triton-X/PBS so as to enhance the membrane permeability. After the cells were subjected to a blocking treatment using an IMAGE IT SIGNAL ENHANCER (trade name, Invitrogen), an anti-human NANOG antibody (AF 1997, R&D Systems, Inc.), an ALEXA FLUOR 555 binding rabbit anti-goat IgG antibody (Invitrogen), and DAPI (Dojindo Molecular Technologies, Inc.) were added thereto for labeling, and the cells were imaged using a fluorescence microscope. FIGS. 4A to 4E show the fluorescence microscopic images.
FIGS. 3A and 4A show the iPS cells cultured on RCP-1; FIGS. 3B and 4B show the iPS cells cultured on RCP-11; FIGS. 3C and 4C show the iPS cells cultured on natural human vitronectin; FIGS. 3D and 4D show the iPS cells cultured on rLaminin-5; and FIGS. 3E and 4E show the iPS cells cultured on rLaminin-511. The scale bar in the images indicates […]. In FIGS. 3A to 3E, the images on the left side are full images of the colony, and the images on the right side are magnified images. In FIGS. 4A to 4E, the images on the left side are images of the cells stained with DAPI, and the images on the right side are images of the cells stained with an anti-NANOG antibody. The scale bar in FIGS. 3A to 4E indicates 200 μm.

Data set [2] relates to iPS cells. In words: Growth evaluation, growth curves over 8 days. It counts as cell-based, human. The conditions noted are these: FIG. 2. How it is done:
The iPS cells collected in the same manner as in <Cell adhesiveness evaluation 1> were seeded into a 96-well plate, onto which RCP-1, RCP-11, and natural human vitronectin were adsorbed, at a ratio of 250 cells/well and cultured for 8 days in a 5% CO2 incubator at 37° C. The number of adhesive cells after different days of culture was measured in the same manner as in <Cell adhesiveness evaluation 1>, thereby obtaining growth curves. […] In FIG. 2, a black rhombus indicates a case using RCP-1, and a black square indicates a case using RCP-11.
From the increase and decrease in the obtained number of cells, the doubling time was calculated. As a result, it was confirmed that it takes 46.4±2.1 hours for the number of cells to be doubled in a case where RCP-1 is used, and 67.7±2.1 hours in a case where RCP-11 is used.

For data set [3], the system named is iPS cells. The data set is described as follows: Cell adhesiveness evaluation 3 (RCP-1 at 125 to 1,000 pmol/cm^2). It counts as cell-based, human. The note with it: amount added equal to or greater than 125 pmol/cm^2. How it is done: The cell adhesiveness was evaluated in the same manner as in <Cell adhesiveness evaluation 1>, except that RCP-1 was used after the concentration thereof was adjusted to 125 pmol/cm^2 to 1,000 pmol/cm^2 by using PBS. In Table 9, the cell adhesion rate is expressed as relative value calculated by regarding a cell adhesion rate with respect to the culture vessel, onto which natural vitronectin is adsorbed at a concentration of 130 pmol/cm^2, as being 100. N=3.

The nature of data set [4]: Aggregation after dialysis (removal of urea). The data set is classed as physicochemical. The conditions noted are these: after stepwise dialysis against PBS, 1.5 M NaCl, 0.5 M L-arginine, 1 mM EDTA, pH 7.4. How it is done: For RCP-1 to RCP-10 and RCP-17, each of the purified polypeptide solutions was dialyzed using SLIDE-A-LIZER (trade name, 3.5 K MWCO.). Basically, by using a dialysis buffer (PBS, 1.5 M NaCl, 0.5 M L-arginine, 1 mM EDTA, pH 7.4) as an outer dialysate, urea was removed by stepwise dialysis. The concentration of the end-product of dialysis was calculated from the absorbence at 280 nm by using NANODROP (trade name, Thermo Fisher Scientific Inc.).
Furthermore, the indices of hydrophobicity determined for each of the amino acids were summed up, the obtained value was divided by the number of the amino acids, and the outcome was determined as the GRAVY value (see Kyte J., Doolittle R. F. (1982), J. Mol. Biol, 157: 105-132). The GRAVY value is an index of the hydrophilicity and hydrophobicity of a polypeptide calculated from the degree of hydrophobicity of the amino acids contained in each polypeptide. The greater the GRAVY value, the more the polypeptide is hydrophobic, and the smaller the GRAVY value, the more the polypeptide is hydrophilic. The results are shown in Table 4. • Whether or not aggregation was occurred was evaluated based on the scale of G, A, and B as shown below. The results are summarized in Table 4. • G: The formation of an aggregate was not observed. • A: The formation of particles having a particle size of about 100 nm was observed. • B: The formation of an aggregation of particles having a particle size of equal to or greater than 1 mm was visually observed.

B1: RCP-11: recombinant polypeptide SEQ ID NO: 24; positions 1-459, corresponds to the sequence of natural human vitronectin, GPLG on N-terminal (protein)
chain: GPLGDQESCKGRCTEGFNVDKKCQCDELCSYYQSCCTDYTAECKPQVTRGDVFTMPEDEYTVYDDGEEKNNATVHEQVGGPSLTSDLQAQSKGNPEQTPVLKPEEEAPAPEVGASKPEGIDSRPETLHPGRPQPPAEEELCSGKPFDAFTDLKNGSLFAFRGQYCYELDEKAVRPGYPKLIRDVWGIEGPIDAAFTRINCQGKTYLFKGSQYWRFEDGVLDPDYPRNISDGFDGIPDNVDAALALPAHSYSGRERVYFFKGKQYWEYQFQHQPSQEECEGSSLSAVFEHFAMMQRDSWEDIFELLFWGRTSAGTRQPQFISRDWHGVPGQVDAAMAGRIYISGMAPRPSLAKKQRFRHRNRKGYRSQRGHSRGRNQNSRRPSRATWLSLFSSEESNLGANNYDDYRMDWLVPATCEPIQSVFFFSGDKYYRVNLRTRRVDTVDPPYPRSIAQYWLGCPAPGHL
modifications: GPLG N-terminal extension; Synthetic peptide RCP-11
B1: the “NANOG expression / maintenance of undifferentiated state” value in the data set on iPS cells [1] is “strongly expressed NANOG in the entirety of the colony”. In addition, in the data set on iPS cells [2], the “number of cells on Day 8 of culture, as fraction of the case where RCP-1 was used” value is reported as “about ⅓”.

B2: RCP-1: recombinant polypeptide SEQ ID NO: 14; human vitronectin positions 1-55, 269-459, methionine on N-terminal (protein)
chain: MDQESCKGRCTEGFNVDKKCQCDELCSYYQSCCTDYTAECKPQVTRGDVFTMPEDEPSQEECEGSSLSAVFEHFAMMQRDSWEDIFELLFWGRTSAGTRQPQFISRDWHGVPGQVDAAMAGRIYISGMAPRPSLAKKQRFRHRNRKGYRSQRGHSRGRNQNSRRPSRATWLSLFSSEESNLGANNYDDYRMDWLVPATCEPIQSVFFFSGDKYYRVNLRTRRVDTVDPPYPRSIAQYWLGCPAPGHL
modifications: Synthetic peptide RCP-1
Take B2: the “NANOG expression / maintenance of undifferentiated state” value in the data set with iPS cells [1] is given as “strongly expressed NANOG in the entirety of the colony”. In the data set on iPS cells [3], the “adhesiveness of iPS cells (in words)” value is on record as “equivalent to the cell adhesion rate of the natural vitronection”. Also, in data set [4], the Aggregation result is “A (The formation of particles having a particle size of about 100 nm was observed.)”. Also, in the data set with iPS cells [2], the “cell growth properties (in words)” value was “higher cell growth properties compared to RCP-11”.
